Literature values in US20100267610A1, “Polypeptide comprising a knottin protein moiety” (priority 2007, published 2010).
Where no end group is shown, it is not given here.

Biological target: T1, PTH-1 receptor (P1R) (Homo sapiens, UniProt Q03431)
T1 sequence (Q03431 27-593): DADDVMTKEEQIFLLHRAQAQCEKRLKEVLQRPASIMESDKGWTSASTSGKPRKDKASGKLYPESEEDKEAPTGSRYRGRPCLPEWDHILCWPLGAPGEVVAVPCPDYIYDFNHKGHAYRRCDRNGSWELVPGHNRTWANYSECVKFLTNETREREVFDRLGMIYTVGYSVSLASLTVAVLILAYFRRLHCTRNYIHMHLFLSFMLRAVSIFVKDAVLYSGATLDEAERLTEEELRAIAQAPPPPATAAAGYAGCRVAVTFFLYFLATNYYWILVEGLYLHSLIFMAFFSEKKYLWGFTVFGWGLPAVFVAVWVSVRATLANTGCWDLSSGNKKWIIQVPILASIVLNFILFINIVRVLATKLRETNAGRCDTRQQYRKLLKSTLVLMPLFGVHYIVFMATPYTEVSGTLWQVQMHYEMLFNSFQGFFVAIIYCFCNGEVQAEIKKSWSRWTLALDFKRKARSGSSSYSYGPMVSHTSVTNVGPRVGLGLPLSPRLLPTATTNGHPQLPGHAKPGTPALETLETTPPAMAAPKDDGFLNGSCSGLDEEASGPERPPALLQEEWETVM
Conditions: Shimizu et al. 2000

In the case of “PTH (1-14): shorter native analog of PTH, residues 1-14, from the literature (SVSEIQLMHNLGKH-NH2; UniProt P01270 32-45, looked up, fragment)”, the “activation of cAMP formation in cells” value is given as “able to activate cAMP formation at high micromolar concentrations”.
